We go through 4 molecules from patent publication US20230183371A1 (University of Texas, published 2023).

Assay [1] addresses T1, recombinant human CD79b protein (human, UniProt P40259 29-159, limits assumed).
T1 sequence (looked up): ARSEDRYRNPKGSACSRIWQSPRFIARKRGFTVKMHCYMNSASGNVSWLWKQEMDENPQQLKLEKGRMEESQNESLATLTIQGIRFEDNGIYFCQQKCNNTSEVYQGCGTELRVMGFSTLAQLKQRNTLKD
Nature of the assay: ELISA on recombinant human CD79b protein. Background: In an ELISA, binding on a coated surface is turned into a signal by an enzyme label.

Assay [2] deals with T1, recombinant human CD79b protein. In words: Octet assay. On the technique in general: In BLI a coated tip is dipped into the sample, and binding shifts an interference pattern.
Assay [3] shares this target. In words: EC50 column of the drawn table; the table does not name the assay, the text gives an ELISA on recombinant human CD79b protein (FIG. 2B).
The target of assay [4] is T2, human CD79b expressed on cells (human, UniProt P40259 29-229).
T2 construct: whole, on cells; also called human CD79b expressed on mouse fibroblast L cells; CD79b on B cell lymphoma cell lines (Daudi, SUDHL6)
T2 sequence (looked up): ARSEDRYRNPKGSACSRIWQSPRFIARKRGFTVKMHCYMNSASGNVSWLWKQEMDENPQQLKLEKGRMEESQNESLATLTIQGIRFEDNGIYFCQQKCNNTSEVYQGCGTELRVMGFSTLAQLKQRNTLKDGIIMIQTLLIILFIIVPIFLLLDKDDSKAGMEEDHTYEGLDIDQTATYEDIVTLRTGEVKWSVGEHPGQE
Nature of the assay: ELISA on mouse fibroblast L cells expressing human CD79b. The text has this: Binding of anti-CD79b antibodies to human CD79b: Full length anti-CD79b monoclonal antibodies (clones 5B and 28B) isolated from hybridoma supernatants were used to test binding to human CD79b expressed on mouse fibroblast L cells by ELISA (FIG. 7).

B1: anti-human CD79b monoclonal antibody clone 45 (IgG2) (antibody, V domains shown)
VH: EVQLQESGAELVRPGALVKLSCRASGFNIKDYYMHWVKQRPEQGLEWIGWIDPENGNSIYDPKFQGKASITADTSSNTAYLQLSSLTSEDTAVYYCAVDLYYGRGTLVTVSA
VL: NIMMTQSPSSLAVSAGEKVTMRCKSSQSVLYSSNQKNYLAWYQQKPGQSPKLLIYWASTRESGVPDRFTGSGSGTDFTLTISSVQAEDLAVYYCHQFLSSYTFGGGTKLEIK
The term EC50 (read off the curve) denotes the concentration giving half of the maximal effect. A word on the Kd: it is the constant that tells how readily two partners part at equilibrium. As a reminder, the EC50 is the midpoint of the concentration-response curve. As for B1, the “EC50 (read off the curve)” value in assay [1] was approximately 0.03 µg/mL. Also, the Kd in assay [2] was found to be 2 nM. Also, the EC50 in assay [3] is 0.0301 µg/mL.

B2: anti-human CD79b monoclonal antibody clone 14 (IgG1) (antibody, V domains shown)
VH: EVQLQESGPELKKPGETVKISCKASGYTFTDYSMHWVKQAPGKGLKWMGWINTETGEPTYADDFKGRFAFSLETSASTAYLQINNLKNDDTATYFCNMDSWGQGTSVTVSS
VL: QIVLTQSPAIMSASPGEKVTMTCSASSSVSYMWWYHQKPGSSPRLLIFDTSNLASGVPVRFSGSGSGTSYSLTISRMEAEDAATYYCQQWTSYPYTFGGGTKLEIK
Regarding B2, the “EC50 (read off the curve)” value in assay [1] was approximately 0.02 µg/mL. The Kd in assay [2] was determined as 1.44 nM. The EC50 in assay [3] was 0.0162 µg/mL.

B3: anti-CD79b monoclonal antibody clone 5B (antibody, V domains shown)
VH: EVQLQESGAELVKPGASVKMSCKASGYTFTSYWMHWVKQRPGQGLEWIGAIDPSDSYTGYNQKFKGKATLTVDTSSSTAYMHLSSLTSEDSAVYFCTRSYYGNSWFDYWGQGTLVTVSA
VL: DIVLTQSPASLAVSLGQRATISCKASQSVDYEGDSYMNWYQQKPGQPPKLLIYAASNLESGIPARFSGSGSGTDFTLNIHPVEEEDAATYHCQQSNEDPFTFGGGTKLEIK
notes: Full length monoclonal antibody isolated from hybridoma supernatant
Turning to B3, in assay [4], it took 0.0409 µg/mL to reach a half-maximal effect (EC50) and the “EC50 (read off the curve)” value was approximately 0.04 µg/mL.

B4: anti-CD79b monoclonal antibody clone 28B (antibody, V domains shown)
VH: EVQLQESGAELVKPGASVKMSCKASGYTFTSYWMHWVKQRPGQGLEWIGAIDPSDSYTGYNQKFKGKATLTVDTSSSTAYMHLSSLTSEDSAVYFCTRSYYGNSWFAYWGQGTLVTVSA
VL: DIVLTQSPASLAVSLGQRATISCKASQSVDYDGDSYMNWYQQKPGQPPKLLIYVASNLESGIPARFSGSGSGTDFTLNIHPVEEEDAATYYCQQSNEDPFTFGSGTKLEIN
notes: as for B3
With B4, in assay [4], the response was half-maximal at 0.0252 µg/mL (EC50) and the “EC50 (read off the curve)” value was approximately 0.02 µg/mL.
